Results: publication PMC11103505 (2024)
Substitutions are numbered along the chain they refer to.

B1: anti-AXL single domain antibody sdAb25 (VHH)
VHH: QVQLQESGGGLVQPGGSLRLSCVASGSIFSIYAMGWYRQAPGKQRELVAGISSGGSTNYADSVKGRFTISRDNAKNTVYLQMNSLKPEDTAVYYCNYDLVEAVTGEYDYWGQGTQVTVSS
B2: anti-AXL single domain antibody sdAb12 (VHH)
VHH: B1 VHH with Q13K
B3: anti-AXL single domain antibody sdAb4 (VHH)
VHH: B1 VHH with E101K
B4: anti-AXL single domain antibody sdAb19 (VHH)
VHH: QVQLQESGGGMVQPGGSLRLSCAASGFTFTSYDMTWLRQTPGKGPEWVSTISTGGLRTYYGNSVKGRFIISRDNTKNTLYLQMNSLKPEDTALYYCARGPFTVADPRRGQGTQVTVSS
B5: anti-AXL single domain antibody sdAb20 (VHH)
VHH: B4 VHH with M11L, Q13R

Experiments:
Assay in all cases: SPR
[1] = target: T1, recombinant mouse AXL protein (mouse, UniProt Q00993 19-445)
T1 chain: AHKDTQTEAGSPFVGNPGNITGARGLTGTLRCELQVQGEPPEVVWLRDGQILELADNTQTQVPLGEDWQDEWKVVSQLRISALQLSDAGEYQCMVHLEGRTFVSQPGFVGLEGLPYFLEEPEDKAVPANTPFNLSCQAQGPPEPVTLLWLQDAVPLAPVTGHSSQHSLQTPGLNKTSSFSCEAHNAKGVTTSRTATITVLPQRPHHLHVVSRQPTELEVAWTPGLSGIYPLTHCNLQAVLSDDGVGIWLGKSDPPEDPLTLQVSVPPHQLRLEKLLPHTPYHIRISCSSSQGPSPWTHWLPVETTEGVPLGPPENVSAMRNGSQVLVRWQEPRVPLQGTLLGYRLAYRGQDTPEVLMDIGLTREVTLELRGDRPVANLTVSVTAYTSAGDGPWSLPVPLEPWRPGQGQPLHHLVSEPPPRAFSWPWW

[2] = target: recombinant human AXL protein (human, UniProt P30530 26-451)
Target sequence in this assay (P30530 26-451): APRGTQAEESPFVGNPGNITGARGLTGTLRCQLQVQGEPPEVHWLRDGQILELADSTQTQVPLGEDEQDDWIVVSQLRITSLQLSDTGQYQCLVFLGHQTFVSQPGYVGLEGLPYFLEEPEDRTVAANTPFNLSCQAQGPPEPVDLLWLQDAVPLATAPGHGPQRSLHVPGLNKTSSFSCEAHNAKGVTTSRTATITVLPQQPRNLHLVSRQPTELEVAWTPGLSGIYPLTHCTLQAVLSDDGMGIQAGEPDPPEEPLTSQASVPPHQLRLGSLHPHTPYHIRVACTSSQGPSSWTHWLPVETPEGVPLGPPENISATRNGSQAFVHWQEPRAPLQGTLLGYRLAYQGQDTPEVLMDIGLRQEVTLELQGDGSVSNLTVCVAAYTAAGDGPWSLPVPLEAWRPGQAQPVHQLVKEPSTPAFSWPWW

[3] = target: recombinant human AXL protein (human, UniProt P30530 26-451); remark: listed apart in the source
Target sequence in this assay (P30530 26-451): as above

[4] = target: T2, recombinant mouse AXL protein (mouse, UniProt Q00993 19-445)
T2 chain: T1 chain

Binder | Kd [1] | Kd [2] | Kd [3] | Kd [4]
B1 | 439 nM | 9.1 nM |  | 
B2 | 354 nM | 7.7 nM |  | 
B3 | 541 nM | 10.8 nM |  | 
B4 | 11.8 nM | 24 nM |  | 
B5 |  |  | 22 nM | 5.2 nM
